Experimental findings from PMC12417749 are described below.

As usually defined, the Kd is the equilibrium constant for the complex coming apart. A high value points to a looser complex.

Where two headings read alike, the source gives them in different places.

What all share (experiment): SPR
For orientation: SPR reads the build-up and loss of mass on a sensor chip optically.

For assay [1], the target named is afucosylated Trastuzumab (TZM‐AF).
Assay [2] has as its target galactosylated Trastuzumab (TZM‐GT).
The target in assay [3] is afucosylated Trastuzumab (TZM‐AF). This is another data set of the same source.
For assay [4], the target named is galactosylated Trastuzumab (TZM‐GT). This is another data set of the same source.

As for “FcγRIIA (from UniProt P12318) (receptor)”, the Kd in assay [1] stood at 250 nM; in assay [2], 180 nM; in assay [3] it was 200 nM; in assay [4] it was 170 nM. The SPR signal at 300 nM receptor in assay [1] and in assay [2] was 40 RU in each case.
Take “FcγRIIB (from UniProt P31994) (receptor)”: the Kd in assay [1] turned out to be 180 nM; in assay [2], 260 nM; in assay [3] it was 170 nM; in assay [4] it was 220 nM. Also, the SPR signal at 300 nM receptor in assay [1] and in assay [2] was 40 RU each time.
